The record followed here is patent publication US20260218147, “CAS ENDONUCLEASE AND GUIDE RNA VARIANTS WITH IMPROVED EFFICIENCY” (PIONEER HI-BRED INTERNATIONAL, INC., published 2026).

The target in data set [1] is T1, Cas-alpha 10 base variant (synthetic construct, UniProt P0DW62 SEQ:1-497).
T1 chain: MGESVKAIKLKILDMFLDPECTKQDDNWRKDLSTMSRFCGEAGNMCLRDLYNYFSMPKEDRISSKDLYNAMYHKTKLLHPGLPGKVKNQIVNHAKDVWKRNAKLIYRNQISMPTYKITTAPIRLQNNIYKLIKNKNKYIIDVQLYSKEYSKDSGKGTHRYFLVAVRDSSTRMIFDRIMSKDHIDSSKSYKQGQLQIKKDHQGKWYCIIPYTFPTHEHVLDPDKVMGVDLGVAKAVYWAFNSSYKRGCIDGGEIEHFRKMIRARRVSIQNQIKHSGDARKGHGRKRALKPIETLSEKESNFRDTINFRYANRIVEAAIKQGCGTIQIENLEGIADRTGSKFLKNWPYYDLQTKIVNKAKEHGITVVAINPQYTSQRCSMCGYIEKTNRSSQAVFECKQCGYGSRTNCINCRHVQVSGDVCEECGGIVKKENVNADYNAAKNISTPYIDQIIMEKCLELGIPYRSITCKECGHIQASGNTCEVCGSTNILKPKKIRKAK
Briefly: cell_activity; PAM GTTC; HEK293T 37 C. Conditions: tags: SV40 NLS; chain copies: 2. The procedure: (§1) Human cell transformation was carried-out by culturing HEK293T cells (ATCC catalog umber CRL-3216) in Dulbecco's Modified Eagle Medium (DMEM) supplemented with 10% fetal bovine serum (FBS) and penicillin (100 U/ml)/streptomycin (100 μg/ml) at 37° C. in 5% CO₂. Cells were then seeded in 96-well plates at a 1.8×10^4 cells/well density. After approximately one day growth, cells were transfected with plasmids encoding nuclease and U6-guide RNA expression cassettes using FuGENE HD (Promega) per manufacturer's instruction. Briefly, on the day of transfection, 0.450 μg of plasmid DNA ([…] of Cas-alpha nuclease and 0.099 μg of sgRNA expression cassettes) was diluted in a final volume of 20 μl of room temperature Opti-MEM (Gibco), mixed, and 1.35 μl of FuGENE HD was added directly to the solution (not allowing undiluted transfection reagent to contact the sides or bottom of the tube or plate) to achieve a 3:1 ratio of transfection reagent to plasmid DNA. The resulting mixture was then incubated for 10 mins at room temperature, 20 μl added to each HEK293T seeded well, and mixed gently by pipetting or by using a shaker. Transfected cells were then grown at 37° C. with 5% CO₂ for 4 days and GFP expression monitored by fluorescence microscope. Experiments were performed with three to twelve independent replicates and transfections where Cas-alpha 10 endonuclease and/or sgRNA plasmid DNA expression cassettes were omitted served as negative controls.
(§2) For human cells, cells were washed twice with PBS two to four days after transfection and lysed using lysis buffer (50 mM Tris, 150 mM NaCl, 0.2% Tween 20, 0.2 mg/ml Proteinase K). Next, RUNX and WTAP targets were evaluated for the presence of targeted mutations using T7 endonuclease I (Guschin, D. Y. et al. (2010) In: Mackay J., Segal D. (eds) Engineered Zinc Finger Proteins. Methods in Molecular Biology (Methods and Protocols), vol 649. Humana Press, Totowa, NJ) and Illumina deep sequencing as described above.

The target of data set [2] is T2, Cas-alpha 10 wild type (Cas12f) (Syntrophomonas palmitatica, UniProt P0DW62 SEQ:1-497).
T2 sequence: T1 chain with G40A, G81E, K87A, K190T, H217T, S298K, F306H, R335T, N405I
Briefly: cell_activity; PAM GTTC; HEK293T 37 C. Conditions: tags: SV40 NLS; chain copies: 2. How it is done: as §1, §2

Data set [3] has as its target T3, Cas-alpha 10 variant T34E+M45S+G81E+G470D (SEQ ID NO:362) (synthetic construct, UniProt P0DW62 SEQ:1-497, D54F).
T3 sequence: T1 chain with T34E, M45S, G81E, G470D
Put plainly: cell_activity; PAM GTTC; HEK293T 37 C. Particulars: tags: SV40 NLS, T2A-GFP; chain copies: 2. How it is done:
as §1, §2

Data set [4] has as its target T4, Cas-alpha 10 variant G81E (synthetic construct, UniProt P0DW62 SEQ:1-497).
T4 chain: T1 chain with G40A, G81E, K87A, K190T, H217T, S298K, F306H, R335T, N405I
Put plainly: cell_activity; PAM GTTC; maize, 3x4 hr 45 C. Particulars: tags: SV40 NLS; chain copies: 2. The procedure: The resulting T-DNA was then placed into LBA4404, a thymine auxotrophic strain of Agrobacterium tumefaciens, containing Vir9, a separate plasmid encoding the Bo542 virulence genes (US20170121722A1 and WO 2017/078836). The resulting Agrobacterium strain was then used to transform nine-to-ten-day old immature maize embryos (approximately 2 mm in size) by submersion in 700A liquid media containing the strain at an optical density (OD) of 0.4 to 2.0 at 550 nm for 5 min. and then removed from the media and placed on solid co-cultivation medium overnight at 21° C. in the dark. Following T-DNA delivery, embryos are transferred to resting media, 13266R, and grown in the dark at 28° C. for 5-7 days. Next, coleoptiles were removed, and embryos transferred to selection media for 11-16 days and kept in the dark at 28° C. They were then moved to maturation media and incubated for 14-25 days in the dark at 28° C. and then subject to light for 2-5 days. Next, they were moved to rooting media and incubated at 26-28° C. under light for 14-28 days refreshing media as needed. To examine Cas-alpha nuclease-guide RNA activity, transformed tissue was incubated at 28° C., standard for Agrobacterium transformation, or at a range of temperatures lower or higher than 28° C.
In a third study, the efficiency of targeted mutagenesis of Cas-alpha 10 endonuclease variants, SEQ ID NOs:14, 48, 60, and 157, were compared when tested with two sgRNA recognition domains, SEQ ID NOs:61 and 327, at two target sites, MS26 and D8. Experiments were carried-out in Zea mays using Agrobacterium (Agro) transformation as described in Example 2. Two temperature regimens were performed. The first subjected Agro transformed embryos (once per day) to 45° C. for 4 hrs on days 3, 4, and 5 (3×4 hr 45° C.) after infection and the second to a continuous incubation at 37° C. on days 1-3 (1-3d 37° C.) following infection. For both regimens, embryos were placed at 28° C. before and after temperature treatment. […]

Residue numbers refer to the chain shown, from its start.

B1: sgRNA RUNX (original) ; RUNX target (ssRNA ; dsDNA)
RNA: AUUUACUCUGUUUCGCGCGCCAGGGCAGUUAGGUGCCCUAAAAGAGCGAAGUGGCCGAAAGGAAAGGCUAACGCUUCUCUAACGCUACGGCGACCUUGGCGAAAUGCCAUCAAUACCACGCGGCCCGAAAGGGUUCGCGCGAAACUGAGUAAUGAAAGUCGCAUCUUGCGUAAGCGCGUGGAUUGAAACCCUGUCUUGUUUGUGAGAGG
DNA 1: GTTCCCTGTCTTGTTTGTGAGAGG
DNA 2: CCTCTCACAAACAAGACAGGGAAC
Consider B1, for which the activity came out at 8.77 % targeted mutagenesis in data set [1] and 5.68 % targeted mutagenesis in data set [2].

B2: sgRNA RUNX Design 5_157-159 ; RUNX target (ssRNA ; dsDNA)
RNA: GUUUCGCGCGCCAGGGCAGUUAGGUGCCCUAAAAGAGCGAAGUGGCCGAAAGGAAAGGCUAACGCUUCUCUAACGCUACGGCGACCUUGGCGAAAUGCCAUCAAUACCACGCGGCCCGAAAGGGUUCGCGCGAAACGAACGCAUCUUGCGUAAGCGCGUGGAUUGAAACCCUGUCUUGUUUGUGAGAGG
DNA 1: GTTCCCTGTCTTGTTTGTGAGAGG
DNA 2: CCTCTCACAAACAAGACAGGGAAC
As to B2, the activity in data set [1] was determined as 19.6 % targeted mutagenesis; in data set [3], 24.2 % targeted mutagenesis.

B3: sgRNA MS26 (original) ; MS26 target (ssRNA ; dsDNA)
RNA: AUUUACUCUGUUUCGCGCGCCAGGGCAGUUAGGUGCCCUAAAAGAGCGAAGUGGCCGAAAGGAAAGGCUAACGCUUCUCUAACGCUACGGCGACCUUGGCGAAAUGCCAUCAAUACCACGCGGCCCGAAAGGGUUCGCGCGAAACUGAGUAAUGAAAGUCGCAUCUUGCGUAAGCGCGUGGAUUGAAACAAGUUCACGGCGUUCCAGGC
DNA 1: GTTCAAGTTCACGGCGTTCCAGGC
DNA 2: GCCTGGAACGCCGTGAACTTGAAC
For B3, in data set [4], the activity turned out to be 6.62 % targeted mutagenesis.
